The target in this test is His6-p97 WT (human, UniProt P55072 1-806). Description: SPR. (In SPR one partner is held on a chip, and binding of the other changes the refractive index at the surface.)
Sequence of His6-p97 WT (P55072 whole entry): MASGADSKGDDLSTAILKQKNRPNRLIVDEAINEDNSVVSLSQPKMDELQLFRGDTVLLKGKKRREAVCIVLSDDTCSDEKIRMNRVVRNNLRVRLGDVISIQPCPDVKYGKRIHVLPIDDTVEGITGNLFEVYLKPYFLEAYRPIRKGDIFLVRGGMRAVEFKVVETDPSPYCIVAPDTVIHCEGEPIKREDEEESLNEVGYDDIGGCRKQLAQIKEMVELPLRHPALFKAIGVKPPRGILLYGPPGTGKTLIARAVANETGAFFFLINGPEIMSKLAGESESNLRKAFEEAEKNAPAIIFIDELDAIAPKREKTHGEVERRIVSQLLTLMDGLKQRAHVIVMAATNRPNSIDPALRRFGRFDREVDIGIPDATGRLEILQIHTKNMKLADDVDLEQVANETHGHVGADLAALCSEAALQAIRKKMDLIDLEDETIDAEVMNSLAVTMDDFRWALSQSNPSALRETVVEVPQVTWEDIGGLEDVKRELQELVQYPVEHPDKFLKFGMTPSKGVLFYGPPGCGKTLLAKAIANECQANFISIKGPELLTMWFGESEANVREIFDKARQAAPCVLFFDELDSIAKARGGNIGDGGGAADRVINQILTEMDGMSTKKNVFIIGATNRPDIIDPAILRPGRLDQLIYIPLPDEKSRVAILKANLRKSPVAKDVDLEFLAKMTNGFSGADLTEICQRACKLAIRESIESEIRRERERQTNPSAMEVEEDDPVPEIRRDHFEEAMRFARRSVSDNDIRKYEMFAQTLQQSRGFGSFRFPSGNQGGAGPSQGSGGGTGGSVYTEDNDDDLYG

B1: Strep-HA-VCF1 WT (natural protein)
chain: not shown
As usually defined, the Kd is the free concentration of one partner at which half of the binding sites on the other are occupied at equilibrium, for simple one-to-one binding. B1 registered a Kd of 10.9 nM.

These data come from paper PMC10950897 (2024).
